This is an account of results in patent US8227408B2, “Leptin as an anti-amyloidogenic biologic and methods for delaying the onset and reducing Alzheimer's disease-like pathology” (Neurotez, Inc., priority 2005, dated 2012).

Assay [1] concerns Neuro2a cells stably transfected with hyg-sa134 (SEAP-APP). The assay is described as follows: Aβ production by Neuro2a cells stably transfected with hyg-sa134 (total Aβ in media, sandwich ELISA). The format is cell-based, mouse. As for the experimental part: (§1) Neuro2a (mouse neuroblastoma) stably transfected with hyg-sa134, a pcDNA3.1/Hygro plasmid (Invitrogen, CA) modified to express a fusion protein of secreted alkaline phosphatase (SEAP) and a fragment of APP consisting of the C-terminal 134 amino acids (“CAPP134”) (SEQ ID NO:10) were maintained in culture as described ([…]) in the presence of 400 μg/ml of hygromycin. SEQ ID NO: 11 is the DNA sequence of the entire hygsa134 vector, which was derived from the pcDNA3.1/Hygro vector by genetic manipulation to insert the DNA sequences for SEAP and CAPP134. The SEAP-CAPP cDNA insert from hyg-sa134 was also subcloned into an adenoviral vector using the Adeno Vator system (Qbiogene, Calif.). The DNA sequence for SEAP (corresponding to nucleotides 981-2441 of hyg-sa134) (SEQ ID NO: 9) is located 5′ to the DNA sequence (SEQ ID NO: 12) coding for CAPP134 (SEQ ID NO: 10).
(§2) SY5Y and hyg-sa134-Neuro2a cells were treated at 80% confluency (see below). Primary neural cultures from mouse embryos were allowed to grow for 6-12 days following plating and prior to viral infection and treatments.
About 5 μg/ml or about 10 μg/ml water-soluble cholesterol was added to cultures for 2 or 5 hours. Water soluble cholesterol (Sigma-Aldrich, MO) is a solution made of cholesterol balanced with cyclodextrin CDX (40 mg cholesterol per gr CDX). For comparison, cultures were treated with the equivalent amount of the resin alone, which leads to depletion of cholesterol in the cultures (Simons et al., Proc Natl Acad Sci USA. 95:6460-4 (1998)).
About 100 ng/ml or about 400 ng/ml leptin (Harbor-UCLA, CA), was added in cell culture medium for 2 or 5 h. Cells were approximately 80% confluent at the time of treatment. Peptide YY (3-36) (Phoenix Pharmaceuticals, Inc., CA), and CNTF (Sigma-Aldrich, Mo.) were added at about 25 μM or 150 μM for the same incubation periods. TOFA, etomoxir (Research Biochemicals International, MA) and cerulenin (Sigma-Aldrich, Mo.) were used as described below.
For the determination of Aβ peptide several methodologies also were used. SY5Y cells in culture were metabolically labeled with ^35S-[Met] as described (Figueiredo-Pereira et al. J Neurochem. 72:1417-22 (1999)), followed by immunoprecipitation, resolution of the immunoprecipitates on SDS-PAGE, autoradiography, and densitometric analysis of the autoradiogram. Neuro2a cells were stably transfected with hyg-sa134 (K. Sambamurti, S. Carolina Medical Center, SC) and Aβ40 (SEQ ID NO: 4) plus Aβ42 (SEQ ID NO: 5) plus Aβ43 (SEQ ID NO: 6) (Total Aβ) in the medium then was quantified by sandwich ELISAs developed with 4G8 and 6 ε10 monoclonal antibodies (Signet, Mass.) as described (Figueiredo-Pereira et al., J Neurochem. 72:1417-22 (1999)). Commercially available ELISA kits (KMI Diagnostics, MN) were used for the separate determination of Aβ40 (SEQ ID NO:4) and Aβ42/43 (SEQ ID NO:5/SEQ ID NO:6) in formic acid extracts of mice brains. Flotillin was detected using monoclonal anti-flotillin-1 antibodies (BD Biosciences, CA). Actin was detected using monoclonal anti-actin antibodies (Research Diagnostics, Inc, NJ).
Human (SYSY) or mouse neuroblastoma cell-lines (Neuro2a) commonly are used to study amyloid β metabolism in vitro. Neuro2a cells are stably transfected with hyg-sa134 (SEQ ID NO: 11), a plasmid driving the expression of a recombinant fusion protein containing the human C-terminal fragment of APP of about 134 amino acids, CAPP134 (SEQ ID NO: 10). Here, 5Y5Y or Neuro2a cultures were treated for 2 or 5 h with about 100 ng/ml or about 400 ng/ml leptin (FIG. 4a, 4b). Similarly, primary neurons from embryonic rat brain, infected with an adenovirus to direct the expression of CAPP134 (SEQ ID NO:10) also were treated according to the same regimen. […]

The test system of assay [2] is primary embryonic rat neurons infected with adenovirus. The assay is described as follows: Aβ production by primary embryonic rat neurons infected with adenovirus (SEAP-APP). It is filed as cell-based. As to conditions: total Aβ in conditioned media, 5 h; concentration (TOFA 200 μM, cerulenin 200 μM, etomoxir 40 μM, peptide YY (3-36) 25 μM, CNTF 25 μM, leptin 400 ng/ml); mean ± SEM; NS = non-significant.
Excerpt: Cell cultures, Treatments, Antibodies and Immunoassays. SY5Y cells (human neuroblastoma) were maintained in culture as described (Johnsingh et al., FEBS Lett. 465:53-8 (2000)). Primary neural cultures were obtained from ε16 rat embryonic cortex, as described (Shimoda et al., 1992. Brain Res. 586:319-31 (1992)). These were either grown as mixed cultures (Johnsingh et al., FEBS Lett. 465:53-8 (2000)) or grown under conditions that favor the isolation and proliferation of astrocytes (Takeshima et al., J Neurosci. 14:4769-79 (1994)).
as §1, §2
Human (SYSY) or mouse neuroblastoma cell-lines (Neuro2a) commonly are used to study amyloid β metabolism in vitro. Neuro2a cells are stably transfected with hyg-sa134 (SEQ ID NO: 11), a plasmid driving the expression of a recombinant fusion protein containing the human C-terminal fragment of APP of about 134 amino acids, CAPP134 (SEQ ID NO: 10). Here, 5Y5Y or Neuro2a cultures were treated for 2 or 5 h with about 100 ng/ml or about 400 ng/ml leptin (FIG. 4a, 4b). Similarly, primary neurons from embryonic rat brain, infected with an adenovirus to direct the expression of CAPP134 (SEQ ID NO:10) also were treated according to the same regimen.

The test system of a further assay is β-secretase. Kind of assay: C99/C83 accumulation in SY5Y cells in presence of γ-secretase inhibitors (Western blot). The format is cell-based, human. As to conditions: 5 h. A general note: A western blot detects proteins with antibodies after separation by electrophoresis.

B1: Leptin: peptide hormone controlling adaptive metabolic mechanisms to energy availability; leptin (Harbor-UCLA) in vitro, recombinant murine leptin in mice (protein, UniProt P41160 22-167, looked up)
Leptin: VPIQKVQDDTKTLIKTIVTRINDISHTQSVSAKQRVTGLDFIPGLHPILSLSKMDQTLAVYQQVLTSLPSQNVLQIANDLENLRDLLHLLAFSKSCSLPQTSGLQKPESLDGVLEASLYSTEVVALSRLQGSLQDILQQLDVSPEC
Regarding B1, in assay [1] (2 or 5 h treatment), the “Aβ production / levels of Aβ in the media (in words)” value was “dose- and time-dependent decrease”. For the same molecule, the “levels of Aβ detected in the media (percentage of corresponding controls), leptin co-administered with cholesterol” value in assay [1] (5 h, highest concentrations of leptin, co-administered with cholesterol, FIG. 4b) was 150±4%. Moreover, the “Neuro2a/SEAP-APP Aβ(% control)” value in assay [1] (total Aβ in conditioned media, 5 h, concentration (TOFA 200 μM, cerulenin 200 μM, etomoxir 40 μM, peptide YY (3-36) 25 μM, CNTF 25 μM, leptin 400 ng/ml), mean ± SEM, 4 experiments, NS = non-significant) turned out to be 56 ± 5 % control. In assay [2], the “Neurons/SEAPP-APP Aβ (% control)” value turned out to be 35 ± 4 % control. In addition, the “cholesterol-induced increase in C99” value with β-secretase (10 μM cholesterol in the presence of 400 ng/ml leptin) is listed as “abolished”. The C99 level result with β-secretase (with L-685,458 (100 nM) or Z-VL-CHO (100 μM), 10 μM cholesterol or 400 ng/ml leptin alone) is “also was observed in the absence of cholesterol”.
